From US20030224375A1, “Assays for evaluating the function of rna helicases” (priority 2002, published 2003)

How the values were obtained:
[1] = target: NPH-II (DExH RNA helicase) (Vaccinia virus) (UniProt P12927); experiment: EMSA
[2] = target: U1A (N-terminal RNP domain, residues 1-117) (UniProt P09012); experiment: EMSA
[3] = test system: RNA substrate containing the U1A binding site from the 3′-untranslated region (UTR) of U1A mRNA; experiment: U1A dissociation (off-rate) from RNA substrate, gel-shift with U1A trap
Procedure: (§1) FIG. 3. Active displacement of U1A by NPH-II. Dissociation experiments were conducted with 1 nM RNA substrate and 10 nM U1A in a buffer of 40 mM Tris/HCl (pH 8.0), 4 mM MgCl2 at 23° C. (final volume, 40 μL)- Reactions were performed as described in FIG. 2, except that they were initiated by addition of ATP (3.5 mM final concentration) and U1A trap (200 nM final concentration (16)), as indicated. Aliquots (6 μL) were withdrawn at 0, 1, 4, 8, 12, and 20 minutes, mixed with 2 μL of 100 mM EDTA and 2.5 μM NPH-II trap (which serves to capture dissociated NPH-II (16)) in 30% glycerol. Each aliquot was then loaded immediately on a 8% native polyacrylamide gel, which was run at 4° C. at 10V/cm. Bands were visualized by PhosphorImager. U1A-bound and free RNA as well as unwound and duplex RNA species are indicated by the cartoons at left (D: bound U1A dimer, M: bound U1A monomer, F: U1A free duplex substrate, U: unwound substrate). A. Release of U1A upon addition of ATP (initiated by adding ATP together with U1A trap). B. Release of U1A upon addition of NPH-II without ATP (initiated by adding only U1A trap). C. Release of U1A in the presence of ATP and NPH-II (initiated by adding ATP together with U1A trap) D. Trapping control: U1A trap is added together with RNA substrate to assess trapping efficiency. Aliquots were removed and treated as described above. E-H. Same reactions as above, but with blunt-end control duplex.
The off-rate for U1A was measured by saturating the substrate with U1A and, after complex formation, adding a large excess of RNA that contains another high-affinity U1A binding site (15). This prevented U1A from re-binding the substrate once it detached and enabled us to monitor the rate of U1A release by gel-shift electrophoresis (FIG. 3).

[4] = test system: RNA substrate containing the U1A binding site from the 3′-untranslated region (UTR) of U1A mRNA; details: previously shown; cited from earlier work
[5] = test system: DNA; details: cited from earlier work
[6] = target: U1A (N-terminal RNP domain, residues 1-117) (UniProt P09012 P09012:1-117); experiment: competition; used at 200 nM to trap dissociated U1A; details: chain copies: 2 (stated, dimer; monomer also seen); hairpin
Procedure: as §1, with “MgCl₂” for “MgCl2”, “E-H. Same reactions as above, but with blunt-end control duplex.” left out

Molecule: 83 bp duplex substrate LS83 with 3' overhang
- activity ([1]; unwinding rate constant 3.5±0.2 independent of duplex length, lower amplitude with trap RNA, Mg2+, 3.5 mM ATP): 3.5 min⁻¹

Molecule: 36 bp duplex substrate LS36 with 3' overhang
- activity ([1]; unwinding rate constant 3.5±0.2 independent of duplex length, Mg2+, 3.5 mM ATP): 3.5 min⁻¹

Molecule: multi-piece substrates (nicked top strand)
- activity ([1]; both pieces displaced, 3.3±0.5, Mg2+, trap RNA, 3'-to-5' directionality): 3.3 min⁻¹

Molecule: blunt-end U1A binding site control duplex
- koff ([2]; off-rate similar to overhang substrate, not increased by NPH-II plus ATP): 0.000167 s⁻¹

Molecule: U1A: RNA-binding protein with N-terminal RNP domain, constituent of the spliceosomal machinery
- U1A binding to substrate and control RNA ([3]; gel shift, 1 nM RNA, 10 nM U1A): high affinity
- off-rate koff of U1A ([3]; without NPH-II (and ATP)): ~10^−2 min^−1
- U1A dissociates from the substrate ([3]; without NPH-II, within 20 minutes): roughly 15%
- affinity of extended two-piece substrate for U1A binding [4]: subnanomolar affinity

Molecule: U1A 3'UTR binding site helicase substrate with 24-nt 3' overhang (AN22U-3')
- activity ([1]; unwinding rate constant without U1A, 3.5 mM ATP, 4 mM MgCl2, pH 8.0, room temperature, with U1A k1 3.52 min-1): 3.5 min⁻¹
- koff ([2]; 40 mM Tris pH 8.0, 4 mM MgCl2, 23 C, U1A trap, no NPH-II, high affinity binding at 10 nM U1A): 0.000167 s⁻¹

B1: UvrD DNA helicase: DNA helicase cited for comparison of unwinding step size (Ali and Lohmann, 1997) (protein, UniProt P03018 1-720, looked up)
DNA helicase II: MDVSYLLDSLNDKQREAVAAPRSNLLVLAGAGSGKTRVLVHRIAWLMSVENCSPYSIMAVTFTNKAAAEMRHRIGQLMGTSQGGMWVGTFHGLAHRLLRAHHMDANLPQDFQILDSEDQLRLLKRLIKAMNLDEKQWPPRQAMWYINSQKDEGLRPHHIQSYGNPVEQTWQKVYQAYQEACDRAGLVDFAELLLRAHELWLNKPHILQHYRERFTNILVDEFQDTNNIQYAWIRLLAGDTGKVMIVGDDDQSIYGWRGAQVENIQRFLNDFPGAETIRLEQNYRSTSNILSAANALIENNNGRLGKKLWTDGADGEPISLYCAFNELDEARFVVNRIKTWQDNGGALAECAILYRSNAQSRVLEEALLQASMPYRIYGGMRFFERQEIKDALSYLRLIANRNDDAAFERVVNTPTRGIGDRTLDVVRQTSRDRQLTLWQACRELLQEKALAGRAASALQRFMELIDALAQETADMPLHVQTDRVIKDSGLRTMYEQEKGEKGQTRIENLEELVTATRQFSYNEEDEDLMPLQAFLSHAALEAGEGQADTWQDAVQLMTLHSAKGLEFPQVFIVGMEEGMFPSQMSLDEGGRLEEERRLAYVGVTRAMQKLTLTYAETRRLYGKEVYHRPSRFIGELPEECVEEVRLRATVSRPVSHQRMGTPMVENDSGYKLGQRVRHAKFGEGTIVNMEGSGEHSRLQVAFQGQGIKWLVAAYARLESV
- unwinding step size [5]: 4-5 bp

Molecule: GGAGAACCAUUGCACUCCGGUUCUUC (ssRNA) [U1A trap (U1 snRNA hairpin)]
- binding result [6]: binds
